Each binder was assayed against T1, FcγRIa extracellular domain with C-terminal His tag (human, UniProt P12314 16-292) (assay: SPR (Biacore), relative FcγRIa binding, GpH7-B3/GpL16-k0 (HoCon Ab) = 100).
T1 construct: extracellular domain; soluble analyte in Biacore; also called FcgRI; CD64
T1 sequence (P12314 16-292): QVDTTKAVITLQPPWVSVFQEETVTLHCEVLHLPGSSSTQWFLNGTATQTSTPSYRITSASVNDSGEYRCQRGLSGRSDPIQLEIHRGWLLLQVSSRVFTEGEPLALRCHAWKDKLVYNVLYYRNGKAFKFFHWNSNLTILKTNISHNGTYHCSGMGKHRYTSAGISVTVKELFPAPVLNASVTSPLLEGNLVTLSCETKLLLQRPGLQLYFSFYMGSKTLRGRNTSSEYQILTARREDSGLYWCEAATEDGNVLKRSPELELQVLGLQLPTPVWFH

Row | Binder | Ho/Con_1a
1 | GpH7-B3 variant P271_19Q/GpL16-k0 (antibody, human IgG1, kappa, homodimerized antibody, mutation in both H chains; also called P271_19Q Ho Ab) heavy: not shown light: DIVMTQSPLSLPVTPGEPASISCQASESLVHSNRNTYLHWYLQKPGQSPQLLIYKVSNRFSGVPDRFSGSGSGTDFTLKISRVEAEDVGVYYCSQNTHVPPTFGQGTKVEIERTVAAPSVFIFPPSDEQLKSGTASVVCLLNNFYPREAKVQWKVDNALQSGNSQESVTEQDSKDSTYSLSSTLTLSKADYEKHKVYACEVTHQGLSSPVTKSFNRGEC | 104 % of control
2 | GpH7-B3 variant Q295_12R/GpL16-k0 (antibody, human IgG1, kappa, homodimerized antibody, mutation in both H chains; also called Q295_12R Ho Ab) heavy: not shown light: DIVMTQSPLSLPVTPGEPASISCQASESLVHSNRNTYLHWYLQKPGQSPQLLIYKVSNRFSGVPDRFSGSGSGTDFTLKISRVEAEDVGVYYCSQNTHVPPTFGQGTKVEIERTVAAPSVFIFPPSDEQLKSGTASVVCLLNNFYPREAKVQWKVDNALQSGNSQESVTEQDSKDSTYSLSSTLTLSKADYEKHKVYACEVTHQGLSSPVTKSFNRGEC | 101 % of control
3 | GpH7-B3 variant S267_10E/GpL16-k0 (antibody, human IgG1, kappa, homodimerized antibody, mutation in both H chains; also called S267_10E Ho Ab) heavy: not shown light: DIVMTQSPLSLPVTPGEPASISCQASESLVHSNRNTYLHWYLQKPGQSPQLLIYKVSNRFSGVPDRFSGSGSGTDFTLKISRVEAEDVGVYYCSQNTHVPPTFGQGTKVEIERTVAAPSVFIFPPSDEQLKSGTASVVCLLNNFYPREAKVQWKVDNALQSGNSQESVTEQDSKDSTYSLSSTLTLSKADYEKHKVYACEVTHQGLSSPVTKSFNRGEC | 107 % of control
4 | GpH7-B3 variant S239_10E/GpL16-k0 (antibody, human IgG1, kappa, homodimerized antibody, mutation in both H chains; also called S239_10E Ho Ab) heavy: not shown light: DIVMTQSPLSLPVTPGEPASISCQASESLVHSNRNTYLHWYLQKPGQSPQLLIYKVSNRFSGVPDRFSGSGSGTDFTLKISRVEAEDVGVYYCSQNTHVPPTFGQGTKVEIERTVAAPSVFIFPPSDEQLKSGTASVVCLLNNFYPREAKVQWKVDNALQSGNSQESVTEQDSKDSTYSLSSTLTLSKADYEKHKVYACEVTHQGLSSPVTKSFNRGEC | 106 % of control

More lines, now with the values ahead:

Row | Ho/Con_1a | Binder
5 | 103 % of control | GpH7-B3 variant P271_10E/GpL16-k0 (antibody, human IgG1, kappa, homodimerized antibody, mutation in both H chains; also called P271_10E Ho Ab) heavy: not shown light: DIVMTQSPLSLPVTPGEPASISCQASESLVHSNRNTYLHWYLQKPGQSPQLLIYKVSNRFSGVPDRFSGSGSGTDFTLKISRVEAEDVGVYYCSQNTHVPPTFGQGTKVEIERTVAAPSVFIFPPSDEQLKSGTASVVCLLNNFYPREAKVQWKVDNALQSGNSQESVTEQDSKDSTYSLSSTLTLSKADYEKHKVYACEVTHQGLSSPVTKSFNRGEC
6 | 103 % of control | GpH7-B3 variant P271_18N/GpL16-k0 (antibody, human IgG1, kappa, homodimerized antibody, mutation in both H chains; also called P271_18N Ho Ab) heavy: not shown light: DIVMTQSPLSLPVTPGEPASISCQASESLVHSNRNTYLHWYLQKPGQSPQLLIYKVSNRFSGVPDRFSGSGSGTDFTLKISRVEAEDVGVYYCSQNTHVPPTFGQGTKVEIERTVAAPSVFIFPPSDEQLKSGTASVVCLLNNFYPREAKVQWKVDNALQSGNSQESVTEQDSKDSTYSLSSTLTLSKADYEKHKVYACEVTHQGLSSPVTKSFNRGEC
7 | 105 % of control | GpH7-B3 variant Q295_10E/GpL16-k0 (antibody, human IgG1, kappa, homodimerized antibody, mutation in both H chains; also called Q295_10E Ho Ab) heavy: not shown light: DIVMTQSPLSLPVTPGEPASISCQASESLVHSNRNTYLHWYLQKPGQSPQLLIYKVSNRFSGVPDRFSGSGSGTDFTLKISRVEAEDVGVYYCSQNTHVPPTFGQGTKVEIERTVAAPSVFIFPPSDEQLKSGTASVVCLLNNFYPREAKVQWKVDNALQSGNSQESVTEQDSKDSTYSLSSTLTLSKADYEKHKVYACEVTHQGLSSPVTKSFNRGEC
8 | 106 % of control | GpH7-B3 variant S267_06M/GpL16-k0 (antibody, human IgG1, kappa, homodimerized antibody, mutation in both H chains; also called S267_06M Ho Ab) heavy: not shown light: DIVMTQSPLSLPVTPGEPASISCQASESLVHSNRNTYLHWYLQKPGQSPQLLIYKVSNRFSGVPDRFSGSGSGTDFTLKISRVEAEDVGVYYCSQNTHVPPTFGQGTKVEIERTVAAPSVFIFPPSDEQLKSGTASVVCLLNNFYPREAKVQWKVDNALQSGNSQESVTEQDSKDSTYSLSSTLTLSKADYEKHKVYACEVTHQGLSSPVTKSFNRGEC
9 | 107 % of control | GpH7-B3 variant S267_14T/GpL16-k0 (antibody, human IgG1, kappa, homodimerized antibody, mutation in both H chains; also called S267_14T Ho Ab) heavy: not shown light: DIVMTQSPLSLPVTPGEPASISCQASESLVHSNRNTYLHWYLQKPGQSPQLLIYKVSNRFSGVPDRFSGSGSGTDFTLKISRVEAEDVGVYYCSQNTHVPPTFGQGTKVEIERTVAAPSVFIFPPSDEQLKSGTASVVCLLNNFYPREAKVQWKVDNALQSGNSQESVTEQDSKDSTYSLSSTLTLSKADYEKHKVYACEVTHQGLSSPVTKSFNRGEC

Reference: US20180155451A1 (published 2018)
